# In patent US20130116146A1 (University of California, published 2013):
# Non-standard residues stand in square brackets, D forms with d. Primed or numbered codes have the meaning given here. No end group written: not given here. Me3″ = trimethyl (trimethyl-lysine); Ahx = NCCCCCC(=O)O
# T1: Polycomb protein chromodomain (a.a. 1-90), GST-tagged fusion protein (Drosophila melanogaster, UniProt P26017 1-90)
# T1 construct: range 1-90; also called Polycomb-GST fusion protein; Polycomb chromodomain; not shown: GST tag
# T1 sequence (looked up): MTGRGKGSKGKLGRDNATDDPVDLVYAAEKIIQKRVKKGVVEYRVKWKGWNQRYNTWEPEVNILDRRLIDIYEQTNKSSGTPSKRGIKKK
# What was measured:
# [1] = target: T2, GST-tagged Abl SH3 domain fusion protein (human, UniProt P00519 61-121, limits assumed); experiment: peptide microarray, GST-Abl SH3 5 uM overlaid, peptide printed at 1 mg/ml, Cy3 fluorescence, triplicates
# T2 construct: domain: SH3 domain; also called GST-Abl SH3; Abl1 SH3 domain; not shown: GST tag
# T2 sequence (P00519 61-121 limits assumed): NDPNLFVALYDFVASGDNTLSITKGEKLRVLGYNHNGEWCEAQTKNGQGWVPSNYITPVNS
# Procedure: All peptides were synthesized by Sigma-Aldrich. The peptides were printed onto glass slides in triplicates by ArrayIt Corporation. A buffer blank and a Cy3 marker were also printed in triplicates. The peptide arrays were blocked with the blocking buffer (5% non-fat dry milk, TBS pH8.0, 0.05% Tween 20) for an hour at room temperature. Next, the peptide arrays were incubated overnight at 4° C. with purified GST-Abl SH3 in the blocking buffer at a final concentration of 5 μM. After washing three times for ten minutes with the TBST buffer (TBS pH8.0, 0.05% Tween 20), an anti-GST antibody (Santa Cruz Biotechnology) was added to a final concentration of 0.2 μg/ml in the blocking buffer for one hour at room temperature. The arrays were then washed three times for ten minutes with the TBST buffer. Finally, the arrays were incubated with the secondary antibody, Cy3-conjugated goat-anti-mouse IgG (H+L) (Jackson ImmunoResearch), for one hour at room temperature, followed by washing for three times for ten minutes with the TBST buffer. As a control, the peptide array was incubated with the anti-GST and the secondary antibodies alone.
# To analyze the microarray data, the spots that were flagged as noisy were first removed. For the high (1 mg/ml) and low (0.5 mg/ml) printing concentrations, 724 and 767 (out of 800) spots remained for later analyses, respectively. Next, the statistical cut-off was determined for the significant fluorescence signal by modeling the background intensity distribution using a Gamma distribution (FIG. 4). The spots were binned based on the fluorescence intensity. To have a better curve fitting, the long tail of the histogram that represented strong binding peptides was removed and only the bins with intensity less than 900 and 1500 for the high and low concentrations, respectively, were kept. The model fitting and p-value calculation were conducted using R and P-value of 0.05 was used as the cutoff.
# [2] = target: T1, Polycomb protein chromodomain (a.a. …); experiment: peptide microarray, GST-Polycomb chromodomain overlaid on trimethylated peptides, p<0.001 in at least two of three spots
# From the text: There are a total of 46 histone peptide sequences (9 a.a. long) with a single lysine-trimethylation site which are conserved between the human and fruit fly H2, H3 and H4 proteins (Table II). These were screened for Polycomb protein chromodomain binding by peptide microarray. Each peptide sequence was screened as triplets, and the fluorescence intensity was quantified with background subtraction individually for each spot from the microarray images by ImageJ⁹ and the whole data set was fit to a mixed Gaussian distribution model (FIG. 8, Table III).
# The peptide microarray was rinsed with TBST buffer (25 mM Tris, 125 mM NaCl, 0.05% Tween-20, pH 8) followed by blocking with 5% non-fat milk in TBST (room temperature 1 hour or 4° C. overnight). The slide was then incubated at 4° C. with Polycomb-GST fusion protein at a final concentration of […] in 5% non-fat milk/TBST for 6 hours. After washing three times for 10 minutes each with TBST, the slide was incubated with an anti-GST mouse monoclonal IgG antibody (Thermo) at a final concentration of 1 μg/mL in 5% non-fat milk/TBST and shaken gently for 1 hour at room temperature. […] The slide was shaken for 1 hr at room temperature and washed three times with TBST.
Binder,Average fluorescence intensity (high printing concentration) [1],binding result [2]
APTVPPPLPP (not fully specified (N-terminus)) [3BP1_HUMAN 616-625 peptide APTVPPPLPP],45100,
PPAYPPPPVP (not fully specified (N-terminus)) [3BP2_HUMAN 201-210 peptide PPAYPPPPVP],29700,
PPAVPPPPVP (not fully specified (N-terminus)) [RIN1_HUMAN 259-268 peptide PPAVPPPPVP],42600,
[Ahx]PPAGGPPPPP (protein label as printed) [VASP2_HUMAN 165-174 peptide PPAGGPPPPP],26200,
[Ahx]PPPPPPPGPP (protein label as printed) [WASP2_HUMAN 394-403 peptide PPPPPPPGPP],2380,
[Ahx]PVAPPPPPPP [WASL_HUMAN 370-379 peptide PVAPPPPPPP],48800,
[Ahx]APSGPPPPPP [WASL_HUMAN 354-363 peptide APSGPPPPPP],52300,
[Ahx]VAPPPPPPPP [WASL_HUMAN 371-380 peptide VAPPPPPPPP],914,
[Ahx]GPVAPPPPPP [WASL_HUMAN 369-378 peptide GPVAPPPPPP],45000,
[Ahx]SRGGPPPPPP [WASL_HUMAN 283-292 peptide SRGGPPPPPP],744,
[Ahx]GRGGPPPPPP [WASP_HUMAN 363-372 peptide GRGGPPPPPP],1300,
[Ahx]GPPMPPPPPP [WASP_HUMAN 390-399 peptide GPPMPPPPPP],23400,
[Ahx]LPPPPLPPPP [YLPM1_HUMAN 81-90 peptide LPPPPLPPPP],595,
PPPPPVPPPP (not fully specified (N-terminus)) [EVL_HUMAN 185-194 peptide PPPPPVPPPP],4680,
[Ahx]PPPPPMPPPP [YLPM1_HUMAN 102-111 peptide PPPPPMPPPP],22800,
PPSLPPPPPP (not fully specified (N-terminus)) [CBLB_HUMAN 818-827 peptide PPSLPPPPPP],35000,
LPPGPPPPVP (not fully specified (N-terminus)) [CPSF6_HUMAN 292-301 peptide LPPGPPPPVP],1900,

Binder,Average fluorescence intensity (high printing concentration) [1],binding result [2]
"GRIHRHLK(Me3″)S (also called H2AZ 37) [GRIHRHLKS, H2AV_DROME lysine site 37, trimethylated]",,binds
"REIRRYQK(Me3″)S (also called H3.3 56) [REIRRYQKS, H3_DROME lysine site 56, trimethylated]",,binds
"GGAKRHRK(Me3″)V (also called H4 20) [GGAKRHRKV, H4_DROME lysine site 20, trimethylated]",,binds
"IQAVLLPK(Me3″)K (also called H2A1 117) [IQAVLLPKK, H2A_DROME lysine site 117, trimethylated]",,binds
"PRKQLATK(Me3″)A (also called H3.3 23) [PRKQLATKA, H3_DROME lysine site 23, trimethylated]",,binds
"RTKQTARK(Me3″)S (also called H3.3 9) [RTKQTARKS, H3_DROME lysine site 9, trimethylated]",,binds
PNQVPPPPPP (not fully specified (N-terminus)) [ENAH_HUMAN 357-366 peptide PNQVPPPPPP],58000,
"RIHRLLRK(Me3″)G (also called H2A1A 35) [RIHRLLRKG, H2A_DROME lysine site 35, trimethylated]",,binds
"ASKDLKVK(Me3″)R (also called H2AZ, H2AV 79) [ASKDLKVKR, H2AV_DROME lysine site 79, trimethylated]",,binds
"EGTKAVTK(Me3″)Y (also called H2B1A 117) [EGTKAVTKY, H2B_DROME lysine site 117, trimethylated]",,binds
"LATKAARK(Me3″)S (also called H3K27me3; H3.3 27) [LATKAARKS, H3_DROME lysine site 27, trimethylated]",,binds
"MDVVYALK(Me3″)R (also called H4 91) [MDVVYALKR, H4_DROME lysine site 91, trimethylated]",,binds
"DSGKAKAK(Me3″)A (also called H2AV 15) [DSGKAKAKA, H2AV_DROME lysine site 15, trimethylated]",,binds
CPLQPPPPPP (not fully specified (N-terminus)) [PDE4D_HUMAN peptide CPLQPPPPPP],840,
SPPLPPPPPP (not fully specified (N-terminus)) [RAPH1_HUMAN 677-686 peptide SPPLPPPPPP],17500,
APPTPPPPPP (not fully specified (N-terminus)) [RAPH1_HUMAN 811-820 peptide APPTPPPPPP],54400,
